Columns and labels:
W&Wlis cells [1] = experiment: DNA content analysis by flow cytometry, labeling with propidium iodide; type: cell-based, canine; design: unit not given here; settings: 0 μg lin, 5 mEU/ml GO
Swiss mice = experiment: Toxicity of glucose oxidase in Swiss mice; type: in vivo; settings: intraperitoneally and intravenously
Procedure: The toxicity of glucose oxidase was evaluated in Swiss mice weighing about 20 grams, intraperitoneally and intravenously inoculated with different amounts of the purified enzyme. […] This allowed establishing an optimal dose range for GO for the combined therapy in this type of animal.

W&Wlis cells [2] = experiment: Structural modifications of the mitochondrion (pDsRed2-mito, confocal microscopy); type: cell-based, canine; settings: linamarin 500 μg/ml from 48 hours; glucose oxidase 5 mEU/ml; combination after 24 hours
Procedure: For the purpose of studying the mitochondrial dynamics occurring as a result of the oxidative stress caused by the activity of the claimed system, W&Wlis cells were stably transfected with the plasmid pdsRed2-mito (Clontech) containing the gene of the one red fluorescent protein carried by a transport signal peptide to the mitochondrion. This allowed viewing the mitochondria of cells treated with linamarin and glucose oxidase by fluorescence microscopy. […] This effect starts to be observed 48 hours after treatment with linamarin (FIG. 1B) and becomes more pronounced after 72 hours, a slight swelling of the fragments (FIG. 1C) being observed.
To study the structural modifications of the mitochondrion during therapy, the W&W and W&Wlis cells were transfected with the plasmid pDsRed2-mito (Clontech, BD Bioscience) containing the gene of a red fluorescent protein which is expressed exclusively in mitochondria. The transfection was performed similarly to the previous section and clones were selected by resistance to neomycin (0.75 and 1.5 mg/ml respectively). The cells from stable expression clones of the protein were seeded in multiwell plates on cover slips (2.5×10^4) and were treated with linamarin (50, 200 or 500 μg/ml) and glucose oxidase (5 mEU/ml). After the suitable incubation time for each experiment (24, 48 or 72 hours) elapsed, the cells were fixed with 4% paraformaldehyde. […]

W&Wlis cells [3] = experiment: Analysis of the type of death by flow cytometry (annexin V-FITC/propidium iodide); type: cell-based, canine
Procedure: The annexin V-FITC and propidium iodide assay was performed in parallel by flow cytometry. The pattern of death of the system was analyzed when adding 5 mEU/ml of glucose oxidase and the combined therapy (5 mEU/ml of GO and 500 μg/ml of linamarin) at 48 hours, followed by the control of untreated cells and of the cells incubated with 500 μg/ml of linamarin at 96 hours. Furthermore, another group of cells was subjected to the same conditions except 10 mM of N-acetyl cysteine (NAC) were added. The cells treated with the combined therapy were subsequently studied at 48 hours in the absence and presence of 100 μM of Z-VAD-fmk, followed by the control of treatment of the cells with UV in the same conditions. Finally, the cells treated with the combined therapy were shown at 48 hours in the absence and presence of 300 μM of 1,5-isoquinolinediol (DIQ), observing that the pattern of death is not modified when PARP-1 is inhibited (FIG. 4).
10^5 W&Wlis cells were seeded in test tubes with a screw-on cap and flat side (Nunc). After 24 hours, different amounts of linamarin (50, 200 or 500 μg/ml) and glucose oxidase (5 mEU/ml) were added in the specified cases. In the appropriate assays, the medium was supplemented with N-acetyl cysteine (10 mM), 1,5-isoquinolinediol (300 μM) or Z-VAD-fmk (100 μM). […] They were centrifuged for 5 minutes at 1200 rpm and the cell precipitate was washed first with PBS and then with binding buffer (0.1 M Hepes/NaOH pH 7.4, 1.4 M NaCl and 25 mM CaCl2). The cells were again precipitated and resuspended in 100 μl of binding buffer supplemented with 5 μl of annexin V-FITC and 2.5 μg/ml of propidium iodide. The samples were incubated for 15 minutes in the dark. Data acquisition and analysis was carried out by means of a FACSCalibur flow cytometer (DB Biosciences) with the Cell Quest program.

W&Wlis cells [4] = experiment: Determination of the extracellular peroxide concentration; type: cell-based, canine; settings: 48 hours; 0.5 mg/ml of linamarin and/or 5 mEU/ml of glucose oxidase; control approximately 20 μM
Procedure: The H2O2 levels (FIG. 3B) produced extracellularly in the combined therapy were further studied in the invention. To do so, the amount of H2O2 present in the culture medium of W&Wlis cells at 48 hours in a treatment with 0.5 mg/ml of linamarin, in the presence of 5 mEU/ml of glucose oxidase or in the combination of both treatments, was analyzed although positive results were also obtained using other concentrations.
The samples to be analyzed were diluted in 1 ml of 0.1 M phosphate buffer pH 7.4. Then 3.7 EU/ml of peroxidase (Sigma-Aldrich, St. Louis, USA) and 0.1 mg/ml of ortho-dianisidine (Sigma-Aldrich, St. Louis, USA) were added. The samples were incubated at room temperature for 30 minutes and absorbances at 436 nm were determined. The H2O2 concentration was obtained by interpolation of the data obtained in a standard line performed with increasing concentrations of H2O2.

W&Wlis cells [5] = experiment: AIF location study by immunofluorescence; type: cell-based, canine; settings: 5 mEU/ml glucose oxidase, with or without 500 μg/ml linamarin
Procedure: Nevertheless, the activation of AIF could be caused by a mechanism that is PARP-1-independent (Cregan, 2004). AIF is a protein residing in the mitochondrion and when activated, it translocates to the nucleus in which it activates apoptosis. The possible translocation of AIF was analyzed by immunofluorescence with antibodies specific against AIF of W&Wlis cells treated with the therapy.
The cells were seeded on cover slips in 24-well plates and were treated according to the requirements of each experiment. After the appropriate incubation time for each assay, the cells were fixed with 4% paraformaldehyde for 30 minutes at room temperature or methanol at −20° C. for 10 minutes. The samples were subsequently permeabilized 10 minutes with PBS supplemented with triton X-100 or 0.1% sodium dodecyl sulfate (SDS) and were blocked by incubating for 30 minutes with PBS with 0.1% triton X-100 and with 1% bovine serum albumin, or PBS with 0.01% SDS and a 10% fetal calf serum. They were subsequently incubated for 45 minutes with the primary antibody at room temperature or overnight at 4° C. The antibodies used were anti-linamarase (1/200, supplied by Monica Hughes) and anti-AIF (1/50, Cell Signaling Technology). The secondary antibody used was anti-rabbit IgG coupled to fluorescein (1/50, Amersham Pharmacia Biotech). […]

W&Wlis cells [6] = experiment: Measurement of intracellular ATP; type: cell-based, canine; settings: linamarin (500 μg/ml) and/or glucose oxidase (5 mEU/ml), over time, versus untreated cells
Procedure: The levels of intracellular energy in the form of ATP decrease when a blockage of the mitochondrial electron transport chain occurs since it is the essential source of obtaining energy of the cells. […] This effect is due to the fact that the maximum H2O2 production by glucose oxidase occurs at short times because the cells have the ability of detoxifying the peroxide and due to the fact that glucose oxidase is inactivated over time by the serum proteins.
10^5 W&Wlis cells were seeded in test tubes with a screw-on cap and flat side (Nunc). After 24 hours, the medium was changed, adding linamarin (500 μg/ml) and glucose oxidase (5 mEU/ml) where appropriate. After 4, 8, 12, 24, 48 or 72 hours, the cells were centrifuged and processed following the instructions of the ATP Bioluminescence Assay Kit CLS II, of Roche Applied Science. The luminescence was analyzed with a Monolight 2010 luminometer (Analytical Luminescence Laboratory, San Diego) and expressed in relative light units (RLU).

[7] = 0 μg lin, 5 mEU/ml GO, 48 hours, NAC (10 mM)
[8] = Table 4, 0 μg lin, 5 mEU/ml GO, 48 hours, Z-VAD-fmk (100 μM)
[9] = Table 4, 0 μg lin, 5 mEU/ml GO, 48 hours, control (no Z-VAD-fmk)
[10] = Table 5, GO, 32 hours, DIQ (300 μM)
[11] = Table 5, GO, 32 hours, control (no DIQ)
[12] = Table 5, GO, 48 hours, DIQ (300 μM)
[13] = Table 5, GO, 48 hours, control (no DIQ)

B1: GO: glucose oxidase enzyme catalyzing the conversion of glucose into gluconic acid, generating hydrogen peroxide (protein, UniProt P13006 17-605, looked up)
Glucose oxidase: LPHYIRSNGIEASLLTDPKDVSGRTVDYIIAGGGLTGLTTAARLTENPNISVLVIESGSYESDRGPIIEDLNAYGDIFGSSVDHAYETVELATNNQTALIRSGNGLGGSTLVNGGTWTRPHKAQVDSWETVFGNEGWNWDNVAAYSLQAERARAPNAKQIAAGHYFNASCHGVNGTVHAGPRDTGDDYSPIVKALMSAVEDRGVPTKKDFGCGDPHGVSMFPNTLHEDQVRSDAAREWLLPNYQRPNLQVLTGQYVGKVLLSQNGTTPRAVGVEFGTHKGNTHNVYAKHEVLLAAGSAVSPTILEYSGIGMKSILEPLGIDTVVDLPVGLNLQDQTTATVRSRITSAGAGQGQAAWFATFNETFGDYSEKAHELLNTKLEQWAEEAVARGGFHNTTALLIQYENYRDWIVNHNVAYSELFLDTAGVASFDVWDLLPFTRGYVHILDKDPYLHHFAYDPQYFLNELDLLGQAAATQLARNISNSGAMQTYFAGETIPGDNLAYDADLSAWTEYIPYHFRPNYHGVGTCSMMPKEMGGVVDNAARVYGVQGLRVIDGSIPPTQMSSHVMTVFYAMALKISDAILEDYASMQ
**Q.** For B1, which “DNA content by flow cytometry, labeling with propidium iodide” value (W&Wlis cells [1]; 24 hours) is on record?
**A.** 1.94

**Q.** And the “DNA content by flow cytometry, labeling with propidium iodide” value (W&Wlis cells [1]; 48 hours)?
**A.** 1.03

**Q.** What about the toxicity (Swiss mice; daily doses between 0.25 and 0.1 EU/g) of the same molecule?
**A.** no harmful effect

**Q.** And the toxicity (Swiss mice; doses of 1 and 0.5 EU/g, first 24 hours post-administration)?
**A.** lethal effect

**Q.** What about the mitochondrial pattern (W&Wlis cells [2]) of the same molecule?
**A.** did not cause any structural change in most of the mitochondria

**Q.** What about the Apoptosis (W&Wlis cells [3]; 0 μg lin, 5 mEU/ml GO, 24 h) of the same molecule?
**A.** 5.98

**Q.** What about the Necrosis (W&Wlis cells [3]; 0 μg lin, 5 mEU/ml GO, 24 h) of the same molecule?
**A.** 12.27

**Q.** What about the Apoptosis (W&Wlis cells [3]; 0 μg lin, 5 mEU/ml GO, 48 h) of the same molecule?
**A.** 8.34

**Q.** And the Necrosis (W&Wlis cells [3]; 0 μg lin, 5 mEU/ml GO, 48 h)?
**A.** 4.50

**Q.** And the Apoptosis (W&Wlis cells [3]; [7])?
**A.** 5.98

**Q.** What about the Necrosis (W&Wlis cells [3]; [7]) of the same molecule?
**A.** 5.42

**Q.** What about the Apoptosis (W&Wlis cells [3]; [8]) of the same molecule?
**A.** 13.94

**Q.** What about the Necrosis (W&Wlis cells [3]; [8]) of the same molecule?
**A.** 18.92

**Q.** What about the Apoptosis (W&Wlis cells [3]; [9]) of the same molecule?
**A.** 3.27

**Q.** And the Necrosis (W&Wlis cells [3]; [9])?
**A.** 29.59

**Q.** What about the Apoptosis (W&Wlis cells [3]; [10]) of the same molecule?
**A.** 9.32

**Q.** And the Necrosis (W&Wlis cells [3]; [10])?
**A.** 16.69

**Q.** What about the Apoptosis (W&Wlis cells [3]; [11]) of the same molecule?
**A.** 6.50

**Q.** And the Necrosis (W&Wlis cells [3]; [11])?
**A.** 27.11

**Q.** What about the Apoptosis (W&Wlis cells [3]; [12]) of the same molecule?
**A.** 17.52

**Q.** And the Necrosis (W&Wlis cells [3]; [12])?
**A.** 20.89

**Q.** And the Apoptosis (W&Wlis cells [3]; [13])?
**A.** 12.92

**Q.** What about the Necrosis (W&Wlis cells [3]; [13]) of the same molecule?
**A.** 31.87

**Q.** What about the “extracellular H2O2 concentration in the culture medium” value (W&Wlis cells [4]) of the same molecule?
**A.** did not cause significant variations

**Q.** And the AIF location (W&Wlis cells [5])?
**A.** typically mitochondrial AIF pattern

**Q.** And the “intracellular ATP levels” value (W&Wlis cells [6])?
**A.** moderate and transitory reduction of ATP after 6 hours
